Measurements from patent US20220089736A1.

Columns and labels:
[1] = biological target: CD28 (Cluster of Differentiation 28) (human) (UniProt P10747); assay: flow cytometry, binding to H929 cells (carry CD28 and BCMA; binding largely dependent upon CD28 arm)
[2] = biological target: CD28 (Cluster of Differentiation 28) (human) (UniProt P10747); assay: flow cytometry, binding to human pan T cells; antibody without Vβ17 arm

Row | Binder | EC50 [1] [µg/mL] | EC50 [2] [µg/mL]
1 | VB28B7 (protein, part only; not given: scFvs, linkers, constant regions, not shown: another chain or arm of the molecule; a dimerising Fc or GST; small tags and cut ends) VH: QVQLQQPGSELVRPGASVKLSCKASGYTFTSYWMHWVKQRHGQGLEWIGNIYPGSGRTNYDEKFKSKGTLTVDTSSRTAYMHLSSLTSEDSAVYYCTREHYGSNSHPMDYWGQGTSVTVSS VL: DIQMTQSPASLSASVGETVTITCGASENIYGSLNWYQRKQGKSPQLLIYGATNLADGMSSRFSGSGSGRQFSLKISSLHPDDVATYYCQNLLSTPYTFGGGTKLELK | 0.1 | 0.06
2 | VB28B9 (protein, part only; not given: scFvs, linkers, constant regions, not shown: another chain or arm of the molecule; a dimerising Fc or GST; small tags and cut ends) VH: QVQLQQWGAGLLKPSETLSLTCAVYGGSFSGYYWNWIRQPPGKGLQWIGEINHSGTTNYNPSLKSRVTISVDTSKNQFSLKLSSLTAADTAVYYCARGEAVALYWGQGTLVTVSS VL: EIVMTQSPATLSVSPGERATLSCRASQSVNSNLAWYQQKPGQAPRLLIYGASARATGIPARFSGSGSGTEFTLTISSLQSEDFAVYYCQQYYNWPLTFGGGTKVEIK | 0.14 | 0.15
